Patent US20120225075A1 (LABRYS BIOLOGICS, published 2012)
Blank lines part the entries; values can stand above or below the binder they belong to.

How the values were obtained:
[1] = biological target: T1, N-LC-biotinylated human β-CGRP (human (the filing says that cynomolgus …, N-LC-biotinylated)); test: SPR (Biacore 3000), side-by-side on the same chip, 20-min dissociation time, 37 °C; 37 C; side-by-side on the same chip; 20-min dissociation; rounded figure for three CGRPs
T1 construct: Captured on a streptavidin sensor chip; also called β-human/cyno; β-human
T1 peptide: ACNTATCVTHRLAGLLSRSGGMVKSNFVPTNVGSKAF
Experimental: (§1) Interaction analysis was conducted at 25° C. and at 37° C. on a Biacore 3000™ system equipped with streptavidin-coated (SA) sensor chips (Biacore AB, Uppsala, Sweden) using standard Biacore running buffers (HBS-P or HBS-EP). N-LC-biotinylated human and rat α- and β-CGRPs were captured on individual flow cells at low levels (typically 100 response units) to provide the reaction surfaces, while an unmodified flow cell served as a reference channel. Purified Fab fragments of antibodies G1 and G2 were generated. Typically, Fabs were prepared as a two-fold serial dilution using 0.5 μM as the top concentration and injected for 1-min at 100 μl/min allowing up to two hours for the dissociation time. Surfaces were regenerated with a mixture of 50% v/v ethanol+25 mM NaOH for G1 Fab and 2:1 v/v Pierce Gentle Elution Buffer/4M NaCl for G2 Fab. […] The binding responses were double-referenced and fit globally to a simple model using BiaEvaluation v. 4.0 software. Affinities were deduced from the quotient of the kinetic rate constants (KD=koff/kₒₙ).
(§2) The dissociation of G1 Fab from α-human, β-human, and […] occurs very slowly. As such, the offrate (koff) cannot be measured accurately unless the dissociation phase is monitored for a very long time. As a general rule-of-thumb, the binding response decays at least 5% over the allowed dissociation time for the report of an accurate offrate. However, monitoring long dissociation times on the Biacore is hindered by baseline drift, which is particularly challenging when working at the low surface capacities required for kinetic analyses. […] As a result, the offrates for β-CGRPs cannot be resolved as accurately as those for α-CGRPs.

[2] = biological target: T2, N-LC-biotinylated human α-CGRP (human (the filing says that cynomolgus …, N-LC-biotinylated)); test: as above
T2 construct: Captured on a streptavidin sensor chip; also called α-human/cyno; α-human
T2 peptide: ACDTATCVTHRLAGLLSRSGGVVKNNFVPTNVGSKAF
Experimental: as §1, §2

[3] = biological target: T3, N-LC-biotinylated rat β-CGRP (rat, N-LC-biotinylated (in the assay with CGRP on the chip)); test: as above
T3 construct: Captured on a streptavidin sensor chip for G1; also called β-rat
T3 peptide: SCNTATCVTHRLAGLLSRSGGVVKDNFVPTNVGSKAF
Experimental: as §1, §2

[4] = biological target: T4, N-LC-biotinylated rat α-CGRP (rat, N-LC-biotinylated); test: SPR (Biacore 3000), Fab over N-biotin-CGRP captured on SA chip, 37 °C
T4 construct: Captured on a streptavidin sensor chip; also called α-rat
T4 peptide: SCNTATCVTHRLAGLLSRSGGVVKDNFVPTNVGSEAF
Experimental: as §1

[5] = biological target: T1, N-LC-biotinylated human β-CGRP; test: as above
Experimental: as §1

[6] = biological target: T2, N-LC-biotinylated human α-CGRP; test: as above
Experimental: as §1

[7] = biological target: T3, N-LC-biotinylated rat β-CGRP; test: as above
Experimental: as §1

[8] = biological target: T2, N-LC-biotinylated human α-CGRP; test: SPR (Biacore 3000), side-by-side on the same chip at 37 °C, 20-min dissociation time; 37 C; side-by-side on the same chip; 20-min dissociation
Experimental: as §1
The results for antibody G1 are expressed in Table 1 below. […] Human and cynomolgus monkey have identical sequences; therefore, the human data also apply to cynomolgus.

[9] = biological target: T3, N-LC-biotinylated rat β-CGRP; test: SPR (Biacore 3000), Fab over N-biotin-CGRP captured on SA chip, 37 °C; 37 C; upper bound, 20-min dissociation
Experimental: as §1
The dissociation of G1 Fab from α-human, β-human, and […] occurs very slowly. As such, the offrate (koff) cannot be measured accurately unless the dissociation phase is monitored for a very long time. As a general rule-of-thumb, the binding response decays at least 5% over the allowed dissociation time for the report of an accurate offrate. […]

[10] = biological target: T4, N-LC-biotinylated rat α-CGRP; test: SPR (Biacore 3000), Fab over N-biotin-CGRP captured on SA chip, 25 °C
Experimental: as §1

[11] = biological target: T2, N-LC-biotinylated human α-CGRP; test: as above
Experimental: as §1

[12] = biological target: T4, N-LC-biotinylated rat α-CGRP; test: SPR (Biacore 3000), Fab over N-biotin CGRP captured on SA chip, 37 °C
Experimental: as §1

[13] = biological target: T2, N-LC-biotinylated human α-CGRP; test: as above
Experimental: as §1

[14] = biological target: T4, N-LC-biotinylated rat α-CGRP; test: SPR (Biacore 3000), Fab over N-biotin CGRP captured on SA chip, 25 °C
Experimental: as §1

[15] = biological target: T1, N-LC-biotinylated human β-CGRP; test: as above
Experimental: as §1

[16] = biological target: T2, N-LC-biotinylated human α-CGRP; test: as above
Experimental: as §1

[17] = biological target: T3, N-LC-biotinylated rat β-CGRP; test: SPR, reverse orientation assay format (data not shown)
125I-human α-CGRP = biological target: T5, 125I-human α-CGRP (human, 125I label (position not given)); test: competition radioligand binding: 125I-human α-CGRP on SK-N-MC cell membranes (CGRP1-receptor), 25 °C; IC50 given as binding sites (IgG value multiplied by 2); 25 C; radioligand competition on SK-N-MC membranes; whole IgG, IC50 said to be converted to binding sites
T5 peptide: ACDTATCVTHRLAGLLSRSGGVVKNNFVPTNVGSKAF
Experimental: A binding assay was performed to measure the IC₅₀ of anti-CGRP G1 antibody in blocking human α-CGRP from binding to the CGRP1-receptor. Membranes (25 μg) from SK-N-MC cells were incubated for 90 minutes at 25° C. in incubation buffer (50 mM Tris-HCl, pH 7.4, 5 mM MgCl₂, 0.1% BSA) containing […] ¹²⁵I-human α-CGRP and varying concentrations of anti-CGRP antibody (0.015 nM-33 nM) in a total volume of 1 ml. Incubation was terminated by filtration through a glass microfiber filter (GF/B, 1 μm) which had been blocked with 0.5% polyethylenimine. The protein-bound radioactivity was determined in a gamma counter.

B1: Fab fragment of antibody G1 (Fab, V domains shown)
VH: EVQLVESGGGLVQPGGSLRLSCAASGFTFSNYWISWVRQAPGKGLEWVAEIRSESDASATHYAEAVKGRFTISRDNAKNSLYLQMNSLRAEDTAVYYCLAYFDYGLAIQNYWGQGTLVTVSS
VL: EIVLTQSPATLSLSPGERATLSCKASKRVTTYVSWYQQKPGQAPRLLIYGASNRYLGIPARFSGSGSGTDFTLTISSLEPEDFAVYYCSQSYNYPYTFGQGTKLEIK
notes: also called G1 Fab; G1 antibody
Kd [1]: ~0.15 nM
Kd [2]: ~0.15 nM
Kd [3]: ~0.15 nM
T1/2 [4]: 28.8 min
koff [4]: 0.000399 s⁻¹
kon [4]: 155000 M⁻¹ s⁻¹
Kd [5]: < 0.155 nM
T1/2 [5]: 166 min
koff [5]: < 6.98e-05 s⁻¹
kon [5]: 451000 M⁻¹ s⁻¹
T1/2 [6]: 318 min
koff [6]: 3.63e-05 s⁻¹
kon [6]: 587000 M⁻¹ s⁻¹
Kd [7]: < 0.152 nM
T1/2 [7]: 147 min
koff [7]: < 7.85e-05 s⁻¹
kon [7]: 516000 M⁻¹ s⁻¹
Kd [8]: 0.163 nM
Kd [9]: < 0.15 nM
T1/2 [10]: 187 min
koff [10]: 6.18e-05 s⁻¹
kon [10]: 50800 M⁻¹ s⁻¹
T1/2 [11]: 1480 min
koff [11]: 7.8e-06 s⁻¹
kon [11]: 186000 M⁻¹ s⁻¹

B2: Fab fragment of antibody G2 (Fab, V domains shown)
VH: EVQLQQSGPELVKPGASVKMSCKASGYTFTSSVMHWVKQKPGQGLEWIGYINPYNDGTKYNEKFKGKATLTSDKSSSTAYMELSSLTSEDSAVYYCAKGGNDGYWGQGTTLTVSS
VL: EIVLTQSPTTMAASPGEKITITCSASSSISSIYLHWYQQKPGFSPKVLIYRASNLASGVPARFSGSGSGTSYSLTIGTMEAEDVATYYCQQGSTIPFTFGSGTKLEIKR
notes: also called G2 Fab; G2 antibody
Kd [12]: 3.4 nM
T1/2 [12]: 6.8 min
koff [12]: 0.0017 s⁻¹
kon [12]: 500000 M⁻¹ s⁻¹
Kd [13]: 41.9 nM
T1/2 [13]: 2.96 min
koff [13]: 0.0039 s⁻¹
kon [13]: 93000 M⁻¹ s⁻¹
Kd [14]: 0.9 nM
T1/2 [14]: 54 min
koff [14]: 0.000214 s⁻¹
kon [14]: 231000 M⁻¹ s⁻¹
Kd [15]: 19.9 nM
T1/2 [15]: 7.13 min
koff [15]: 0.00162 s⁻¹
kon [15]: 81400 M⁻¹ s⁻¹
Kd [16]: 19.1 nM
T1/2 [16]: 10.1 min
koff [16]: 0.00115 s⁻¹
kon [16]: 60300 M⁻¹ s⁻¹

Further lines, results first:

binding result [17]: binds
B3: antibody G2 (form in the reverse orientation assay not stated) (antibody, V domains shown)
VH: EVQLQQSGPELVKPGASVKMSCKASGYTFTSSVMHWVKQKPGQGLEWIGYINPYNDGTKYNEKFKGKATLTSDKSSSTAYMELSSLTSEDSAVYYCAKGGNDGYWGQGTTLTVSS
VL: EIVLTQSPTTMAASPGEKITITCSASSSISSIYLHWYQQKPGFSPKVLIYRASNLASGVPARFSGSGSGTSYSLTIGTMEAEDVATYYCQQGSTIPFTFGSGTKLEIK
notes: Anti-rat CGRP mouse monoclonal antibody

IC50 (125I-human α-CGRP): 1.8 nM
B4: anti-CGRP G1 antibody (whole IgG) (antibody, V domains shown)
VH: EVQLVESGGGLVQPGGSLRLSCAASGFTFSNYWISWVRQAPGKGLEWVAEIRSESDASATHYAEAVKGRFTISRDNAKNSLYLQMNSLRAEDTAVYYCLAYFDYGLAIQNYWGQGTLVTVSS
VL: EIVLTQSPATLSLSPGERATLSCKASKRVTTYVSWYQQKPGQAPRLLIYGASNRYLGIPARFSGSGSGTDFTLTISSLEPEDFAVYYCSQSYNYPYTFGQGTKLEIKR
notes: also called antibody G1; anti-CGRP antibody
